From IntAct's records for PubMed 22531782

B1: E3 ubiquitin-protein ligase RNF8 (Homo sapiens), O76064 (parent)
chain: MGEPGFFVTGDRAGGRSWCLRRVGMSAGWLLLEDGCEVTVGRGFGVTYQLVSKICPLMISRNHCVLKQNPEGQWTIMDNKSLNGVWLNRARLEPLRVYSIHQGDYIQLGVPLENKENAEYEYEVTEEDWETIYPCLSPKNDQMIEKNKELRTKRKFSLDELAGPGAEGPSNLKSKINKVSCESGQPVKSQGKGEVASTPSDNLDPKLTALEPSKTTGAPIYPGFPKVTEVHHEQKASNSSASQRSLQMFKVTMSRILRLKIQMQEKHEAVMNVKKQTQKGNSKKVVQMEQELQDLQSQLCAEQAQQQARVEQLEKTFQEEEQHLQGLEIAQGEKDLKQQLAQALQEHWALMEELNRSKKDFEAIIQAKNKELEQTKEEKEKMQAQKEEVLSHMNDVLENELQCIICSEYFIEAVTLNCAHSFCSYCINEWMKRKIECPICRKDIKSKTYSLVLDNCINKMVNNLSSEVKERRIVLIRERKAKRLF

Variants of: B1
Settings: with chd4_human CHD4, Q14839
Chain of chd4_human CHD4, Q14839 (Q14839 whole entry): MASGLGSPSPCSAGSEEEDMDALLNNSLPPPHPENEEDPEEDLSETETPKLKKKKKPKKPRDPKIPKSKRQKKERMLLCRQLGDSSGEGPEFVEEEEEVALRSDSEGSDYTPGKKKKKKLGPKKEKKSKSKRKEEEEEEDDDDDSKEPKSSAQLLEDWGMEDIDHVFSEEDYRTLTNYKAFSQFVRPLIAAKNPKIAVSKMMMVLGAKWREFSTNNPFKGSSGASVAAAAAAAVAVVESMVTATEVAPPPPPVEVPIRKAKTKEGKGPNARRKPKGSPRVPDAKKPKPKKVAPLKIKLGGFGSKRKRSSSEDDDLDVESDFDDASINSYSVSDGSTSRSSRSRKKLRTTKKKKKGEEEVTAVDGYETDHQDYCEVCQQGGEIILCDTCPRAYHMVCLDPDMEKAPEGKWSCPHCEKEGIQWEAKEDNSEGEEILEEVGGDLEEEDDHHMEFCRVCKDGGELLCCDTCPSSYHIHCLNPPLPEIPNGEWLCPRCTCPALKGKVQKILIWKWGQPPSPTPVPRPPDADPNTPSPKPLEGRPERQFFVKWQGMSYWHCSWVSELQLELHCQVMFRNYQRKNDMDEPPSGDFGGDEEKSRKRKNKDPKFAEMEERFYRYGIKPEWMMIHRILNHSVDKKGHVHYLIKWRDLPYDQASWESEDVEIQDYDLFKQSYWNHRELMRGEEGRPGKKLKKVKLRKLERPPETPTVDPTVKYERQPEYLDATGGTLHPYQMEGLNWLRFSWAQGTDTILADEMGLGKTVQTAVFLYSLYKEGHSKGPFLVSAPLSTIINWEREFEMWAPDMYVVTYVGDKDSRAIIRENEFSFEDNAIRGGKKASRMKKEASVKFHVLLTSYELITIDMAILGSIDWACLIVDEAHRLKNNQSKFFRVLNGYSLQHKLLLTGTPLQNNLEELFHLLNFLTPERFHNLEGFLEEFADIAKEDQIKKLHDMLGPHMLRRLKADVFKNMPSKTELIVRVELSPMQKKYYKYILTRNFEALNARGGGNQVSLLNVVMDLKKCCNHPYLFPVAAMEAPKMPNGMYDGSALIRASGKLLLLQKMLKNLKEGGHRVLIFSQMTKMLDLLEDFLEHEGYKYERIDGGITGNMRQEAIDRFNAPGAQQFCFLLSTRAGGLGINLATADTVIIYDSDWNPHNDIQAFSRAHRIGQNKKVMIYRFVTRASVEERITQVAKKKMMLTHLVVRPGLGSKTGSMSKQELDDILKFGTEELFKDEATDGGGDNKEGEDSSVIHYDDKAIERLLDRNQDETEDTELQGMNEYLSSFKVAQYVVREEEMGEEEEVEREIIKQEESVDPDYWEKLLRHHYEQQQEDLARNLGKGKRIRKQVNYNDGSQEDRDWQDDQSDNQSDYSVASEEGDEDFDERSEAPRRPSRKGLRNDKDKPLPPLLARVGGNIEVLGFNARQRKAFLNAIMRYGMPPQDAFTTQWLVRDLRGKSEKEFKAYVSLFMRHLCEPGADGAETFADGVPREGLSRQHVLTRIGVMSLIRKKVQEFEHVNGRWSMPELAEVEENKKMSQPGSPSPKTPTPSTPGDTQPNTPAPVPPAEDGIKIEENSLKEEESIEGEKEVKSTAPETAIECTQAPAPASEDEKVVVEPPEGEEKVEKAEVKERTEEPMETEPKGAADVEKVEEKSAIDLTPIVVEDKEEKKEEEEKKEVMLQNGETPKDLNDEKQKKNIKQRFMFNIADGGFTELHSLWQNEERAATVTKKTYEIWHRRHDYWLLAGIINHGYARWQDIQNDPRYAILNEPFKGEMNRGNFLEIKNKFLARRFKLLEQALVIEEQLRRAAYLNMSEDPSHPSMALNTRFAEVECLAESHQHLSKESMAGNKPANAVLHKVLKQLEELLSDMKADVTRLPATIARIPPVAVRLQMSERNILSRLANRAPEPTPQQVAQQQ

Row | Variant | effect of a mutation on the interaction
1 | R42A | increasing interaction
2 | C403S | increasing interaction
